Assays:
[1] = target: His-tagged OsTFIIAγ1, labelled with NT-647 (rice (Oryza sativa)); assay: MST; […]; 50 mM Tris-HCl pH 7.8, 150 mM NaCl, 10 mM MgCl2, 0.05% Tween-20; 25°C; […]
[2] = target: His-tagged Xa5 (OsTFIIAγ5), labelled with NT-647 (rice (Oryza sativa)) (UniProt A2XZI2); assay: as above

| Substance | Kd [1] | Kd [2] |
| --- | --- | --- |
| His-tagged PthXo1 (from UniProt B2SU53 1-1373) (natural protein) | < 1000 nM | – |
| His-tagged AvrXa27 (from UniProt A0A0K0GNW2 1-1136) (natural protein) | < 1000 nM | – |
| His-tagged AvrXa7 (natural protein) | < 1000 nM | < 1000 nM |
